Experimental data reported in patent US20130316022A1, “METHOD TO ENHANCE ANTIMICROBIAL ACTIVITY BY INCREASING pH” (University of Iowa Research Foundation, priority 2012, published 2013).

Assays:
[1] = tested on: E. coli DH5a expressing luminescence plasmid pCGLS1; assay: E. coli luminescence antibacterial assay, effect of pH; type: cell-based; conditions: pH values from 6.8-8.0 (FIG. 8)
Protocol: (§1) To assess the effect of pH on the antibacterial activity of lysozyme and lactoferrin, we used a luminescence assay of bacterial viability that has been described previously ^15. The bacteria used were S. aureus Xen29 (Caliper LifeSciences Bioware™, Hopkinton, Mass.) and E. coli DH5a (GIBCO BRL, Life Technologies, Grand Island, N.Y.) expressing a luminescence plasmid pCGLS1. E. coli were grown in Luria-Bertani medium containing ampicillin (100 μg/ml, to maintain the plasmid) at 30° C. with shaking. For S. aureus, kanamycin 10 μg/ml was used instead of ampicillin. Log phase bacteria were centrifuged and resuspended in 1% Tryptic Soy Broth medium with 10 mM HEPES titrated to pH values from 6.8-8.0. E. coli (5×10^6 CFU) or S. aureus (5×10^5 CFU) were incubated with the indicated concentrations of lysozyme or lactoferrin in 96-well plates (Optiplate-96, Perkin Elmer, Waltham, Mass.) in a total volume of 120 μl. Controls were the same conditions in the same plates, but without lysozyme or lactoferrin. After incubation at 30° C. for the indicated times, luminescence was measured with a luminometer (Spectra Max L, Molecular Devices, Sunnyvale, Calif.) and was reported as relative light units (RLU). A previous study^16 determined that reductions in luminescence have an excellent correlation with a decrease in CFU.

S. aureus Xen29 = assay: S. aureus luminescence antibacterial assay, effect of pH; type: cell-based
Protocol: as §1

Row | Molecule | effect of pH on E. coli killing [1] | relative luminescence compared to control (S. aureus Xen29; pH 6.8, 1.25 mg/ml lysozyme, 30 minutes) | relative luminescence compared to control (S. aureus Xen29; pH 7.2, 1.25 mg/ml lysozyme, 30 minutes) | relative luminescence compared to control (S. aureus Xen29; pH 7.6, 1.25 mg/ml lysozyme, 30 minutes) | relative luminescence compared to control (S. aureus Xen29; pH 8.0, 1.25 mg/ml lysozyme, 30 minutes) | relative luminescence compared to control (S. aureus Xen29; pH 6.8, 4 mg/ml lactoferrin, 60 minutes) | relative luminescence compared to control (S. aureus Xen29; pH 7.2, 4 mg/ml lactoferrin, 60 minutes) | relative luminescence compared to control (S. aureus Xen29; pH 7.6, 4 mg/ml lactoferrin, 60 minutes) | relative luminescence compared to control (S. aureus Xen29; pH 8.0, 4 mg/ml lactoferrin, 60 minutes)
1 | lysozyme (protein, UniProt P61626 19-148, looked up, endogenous ASL antimicrobial protein, tested at 1.25 mg/ml) Lysozyme C: KVFERCELARTLKRLGMDGYRGISLANWMCLAKWESGYNTRATNYNAGDRSTDYGIFQINSRYWCNDGKTPGAVNACHLSCSALLQDNIADAVACAKRVVRDPQGIRAWVAWRNRCQNRDVRQYVQGCGV | increasing pH increased S. aureus and E. coli killing | 49.1 ± 3.4 | 43.5 ± 1.5 | 30.6 ± 2.3 | 23.4 ± 0.8 | – | – | – | –
2 | lactoferrin (protein, UniProt P02788 20-710, looked up, endogenous ASL antimicrobial protein, tested at 4 mg/ml) Lactotransferrin: GRRRSVQWCAVSQPEATKCFQWQRNMRKVRGPPVSCIKRDSPIQCIQAIAENRADAVTLDGGFIYEAGLAPYKLRPVAAEVYGTERQPRTHYYAVAVVKKGGSFQLNELQGLKSCHTGLRRTAGWNVPIGTLRPFLNWTGPPEPIEAAVARFFSASCVPGADKGQFPNLCRLCAGTGENKCAFSSQEPYFSYSGAFKCLRDGAGDVAFIRESTVFEDLSDEAERDEYELLCPDNTRKPVDKFKDCHLARVPSHAVVARSVNGKEDAIWNLLRQAQEKFGKDKSPKFQLFGSPSGQKDLLFKDSAIGFSRVPPRIDSGLYLGSGYFTAIQNLRKSEEEVAARRARVVWCAVGEQELRKCNQWSGLSEGSVTCSSASTTEDCIALVLKGEADAMSLDGGYVYTAGKCGLVPVLAENYKSQQSSDPDPNCVDRPVEGYLAVAVVRRSDTSLTWNSVKGKKSCHTAVDRTAGWNIPMGLLFNQTGSCKFDEYFSQSCAPGSDPRSNLCALCIGDEQGENKCVPNSNERYYGYTGAFRCLAENAGDVAFVKDVTVLQNTDGNNNEAWAKDLKLADFALLCLDGKRKPVTEARSCHLAMAPNHAVVSRMDKVERLKQVLLHQQAKFGRNGSDCPDKFCLFQSETKNLLFNDNTECLARLHGKTTYEKYLGPQYVAGITNLKKCSTSPLLEACEFLRK | increasing pH increased S. aureus and E. coli killing | – | – | – | – | 85.0 ± 9.3 | 73.6 ± 8.2 | 60.8 ± 4.8 | 39.8 ± 5.0
